{
  "source": "paper doi:10.1101/2023.10.23.563088",
  "key": {"[1]": {"target": "gramicidin D (the natural mixture of linear gramicidins)"}, "[2]": {"target": "gramicidin D (the natural mixture of linear gramicidins)", "remark": "listed apart in the source"}},
  "data": [
    {"substance": "gramicidin D (the natural mixture of linear gramicidins) (peptide)", "values": [
      {"measurement": "ANTS fluorescence quench rate by Tl+ entering DC22:1PC LUVs through gramicidin channels (GFA), rate relative to control, with remdesivir 1 to 3 μM (no observable effect at 1 μM)", "setting": "[1]", "result": 2, "unit": "fold"},
      {"measurement": "ANTS fluorescence quench rate by Tl+ entering DC22:1PC LUVs through gramicidin channels (GFA), rate relative to DMSO control, with ivermectin 1 to 10 μM (12-fold at 1 μM)", "setting": "[2]", "result": 17, "unit": "fold"}
    ]}
  ]
}
